Measured values: patent US20220041691A1, “METHODS FOR DIAGNOSING OR TREATING POST-TRAUMATIC STRESS DISORDER, AND COMPOSITIONS THEREFOR” (Centre for Addiction and Mental Health, priority 2018, published 2022)
“Also recorded” adds a separate entry of the source. Like-named read-outs stand apart in the source and are kept apart here. Ends that are not written are not given here.

B1: GST-GRCT (GST fusion of the carboxyl-terminus of GR) (other)
chain: CLVCSDEASGCHYGVLTCGSCKVFFKRAVEGQHNYLCAGRNDCIIDKIRRKNCPACRYRKCLQAGMNLEARKTKKKIKGIQQATTGVSQETSENPGNKTIVPATLPQLTPTLVSLLEVIEPEVLYAGYDSSVPDSTWRIMTTLNMLGGRQVIAAVKWAKAIPGFRNLHLDDQMTLLQYSWMFLMAFALGWRSYRQSSANLLCFAPDLIINEQRMTLPCMYDQCKHMLYVSSELHRLQVSYEEYLCMKTLLLLSSVPKDGLKSQELFDEIRMTYIKELGKAIVKREGNSSQNWQRFYQLTKLLDSMHEVVENLLNYCFQTFLDKTMSIEFPEMLAEIITNQIPKYSNGNIKKLLFHQK
notes: not shown: glutathione S-transferase (GST) tag from the pGEX-4T3 vector
B2: GST-FK1 (other)
chain: MTTDEGAKNNEESPTATVAEQGEDITSKKDRGVLKIVKRVGNGEETPMIGDKVYVHYKGKLSNGKKFDSSHDRNEPFVFSLGKGQVIKAWDIGVATMKKGEICHLLCKPEYAYGSAGSLPKIPSNATLFFEIELLDFKGEDLF
notes: also called FKBP51FK1; not shown: glutathione S-transferase (GST) tag; vector stated only for the GR fragments (pGEX-4T3)
B3: GST-FK2 (other)
chain: EDGGIIRRTKRKGEGYSNPNEGATVEIHLEGRCGGRMFDCRDVAFTVGEGEDHDIPIGIDKALEKMQREEQCILYLGPRYGFGEAGKPKFGIEPNAELIYEVTLKSFEKAKESW
notes: also called FKBP51FK2; not shown: glutathione S-transferase (GST) tag; vector stated only for the GR fragments (pGEX-4T3)
B4: GST-TPR1 (other)
chain: EMDTKEKLEQAAIVKEKGTVYFKGGKYMQAVIQYGKIVSWLEMEYGLSEK
modifications: also: GST tag fusion, linker not given here
notes: also called FKBP51TPR-1; not shown: glutathione S-transferase (GST) tag; vector stated only for the GR fragments (pGEX-4T3)
B5: GST-TPR2 (other)
chain: ESKASESFLLAAFLNLAMCYLKLREYTKAVECCDKALGLDSANEKGLYRR
modifications: cysteine pairing not given here; also: GST tag fusion, linker not given here
notes: also called FKBP51TPR-2; not shown: glutathione S-transferase (GST) tag; vector stated only for the GR fragments (pGEX-4T3)
B6: GST-TPR4 (other)
chain: IYANMFKKFAEQDAKEEANKAMGKKTSEGVTNEKGTDSQAMEEEKPEGHV
modifications: also: GST tag fusion, linker not given here
notes: also called FKBP51TPR-4; not shown: glutathione S-transferase (GST) tag; vector stated only for the GR fragments (pGEX-4T3)
B7: GST-GRNT1 (other)
chain: MDSKESLTPGREENPSSVLAQERGDVMDFYKTLRGGATVKVSASSPSLAVASQSDSKQRRLLVDFPKGSV
notes: as for B1
B8: GST-GRNT2 (other)
chain: SNAQQPDLSKAVSLSMGLYMGETETKVMGNDLGFPQQGQISLSSGETDLKLLEESIANLNRSTSVPENPK
notes: as for B1
B9: GST-GRNT3 (other)
chain: SSASTAVSAAPTEKEFPKTHSDVSSEQQHLKGQTGTNGGNVKLYTTDQSTFDILQDLEFSSGSPGKETNE
notes: as for B1
B10: GST-GRNT5 (other)
chain: EDFIELCTPGVIKQEKLGTVYCQASFPGANIIGNKMSAISVHGVSTSGGQMYHYDMNTASLSQQQDQKPI
notes: as for B1
B11: GST-GRNT6 (other)
chain: FNVIPPIPVGSENWNRCQGSGDDNLTSLGTLNFPGRTVFSNGYSSPSMRPDVSSPPSSSSTATTGPPPKL
notes: as for B1
B12: GST-GRNT: GST-fusion protein encoding the amino-terminus of GR (protein)
chain: MDSKESLTPGREENPSSVLAQERGDVMDFYKTLRGGATVKVSASSPSLAVASQSDSKQRRLLVDFPKGSVSNAQQPDLSKAVSLSMGLYMGETETKVMGNDLGFPQQGQISLSSGETDLKLLEESIANLNRSTSVPENPKSSASTAVSAAPTEKEFPKTHSDVSSEQQHLKGQTGTNGGNVKLYTTDQSTFDILQDLEFSSGSPGKETNESPWRSDLLIDENCLLSPLAGEDDSFLLEGNSNEDCKPLILPDTKPKIKDNGDLVLSSPSNVTLPQVKTEKEDFIELCTPGVIKQEKLGTVYCQASFPGANIIGNKMSAISVHGVSTSGGQMYHYDMNTASLSQQQDQKPIFNVIPPIPVGSENWNRCQGSGDDNLTSLGTLNFPGRTVFSNGYSSPSMRPDVSSPPSSSSTATTGPPPKL
modifications: left off: a dimerising Fc or GST
notes: GST-fusion protein encoding the amino-terminus of GR
B13: GST-GRNT4: GST-fusion protein of GRNT fragment 4 (protein)
chain: SPWRSDLLIDENCLLSPLAGEDDSFLLEGNSNEDCKPLILPDTKPKIKDNGDLVLSSPSNVTLPQVKTEK
modifications: also: GST fusion protein

What was measured:
[1] = target: T1, FKBP51-TPR (Homo sapiens, UniProt Q13451); assay: Surface plasmon resonance, binding of FKBP51 TPR domain to GR and its phosphorylation mutants; conditions: Flag-tagged GR immobilized on sensor chip, 25° C.
T1 construct: made in house; host or cells: bacteria
T1 sequence (Q13451 258-457): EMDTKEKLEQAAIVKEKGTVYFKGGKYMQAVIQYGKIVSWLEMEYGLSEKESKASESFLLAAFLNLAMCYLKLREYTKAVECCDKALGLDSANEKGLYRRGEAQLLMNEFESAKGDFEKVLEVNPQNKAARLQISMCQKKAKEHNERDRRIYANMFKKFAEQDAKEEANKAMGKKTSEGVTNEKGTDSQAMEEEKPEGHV
Procedure: The binding of FKBP51 TPR domain to GR and its phosphorylation mutants was determined by surface plasmon resonance using a Reichert SR7500DC instrument. Experiments were conducted at 25° C. with 2000 RU HEK293 expressed FLAG-tagged GR bound onto a FLAG antibody-coated Dextran 50,000 Da chip. Running buffer (PBS, pH 7.4 with 0.005% Tween 20) was used with a flow rate of 25 μl/min. With association time of 300s and dissociation of 240s, binding signals were determined by injecting various concentrations of the GST-FKBP51_TPR.

[2] = target: T2, FKBP51 (Mus musculus, UniProt Q64378); assay: GST pull-down of FKBP51 by GST-GR fragments in mouse brain tissue; assay type: binding
T2 construct: from tissue; host or cells: mouse brain
T2 sequence (Q64378 1-456): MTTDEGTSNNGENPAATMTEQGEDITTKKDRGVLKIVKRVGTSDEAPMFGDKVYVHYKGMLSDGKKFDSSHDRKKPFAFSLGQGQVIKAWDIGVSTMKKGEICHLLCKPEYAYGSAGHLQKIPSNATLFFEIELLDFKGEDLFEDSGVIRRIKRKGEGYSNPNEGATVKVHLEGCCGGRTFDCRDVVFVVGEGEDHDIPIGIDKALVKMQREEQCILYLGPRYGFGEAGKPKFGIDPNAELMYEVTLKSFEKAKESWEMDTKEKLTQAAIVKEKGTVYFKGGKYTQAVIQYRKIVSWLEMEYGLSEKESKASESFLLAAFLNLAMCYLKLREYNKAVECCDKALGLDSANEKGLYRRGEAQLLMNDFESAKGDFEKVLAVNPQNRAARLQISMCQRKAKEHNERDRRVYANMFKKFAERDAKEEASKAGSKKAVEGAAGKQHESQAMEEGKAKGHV
Source text: The present inventors identified that if increased GR-FKBP51 complex levels are part of the pathophysiology of PTSD, then disrupting the complex may rescue behaviors related to PTSD. To develop an agent (in this example, a peptide-based agent) capable of blocking the GR-FKBP51 interaction, experiments were first performed to identify the regions of the GR that are important to bind FKBP51 (and vice versa). Initially, GST-fusion proteins were used encoding the amino-terminus (NT) of GR (GRNT) and the carboxyl-terminus (CT) of GR (GRCT) for affinity purification. […] Extending this strategy, GRNT fragments were examined (see FIG. 8, where the 6 tested GRNT fragments, NT-1, NT-2, NT-3, NT-4, NT-5, and NT-6 are shown). […] Similarly, it was determined that the TPR (tetratricopeptide repeat) domains of FKBP51 bind GR (FIG. 2D). In these studies, GST-fusion proteins of 3 different portions of the FKBP51 protein were prepared (FK1, FK2, and TPR, see FIG. 9) and tested. The TPR fragment was identified as containing the relevant interaction region.
GST-fusion proteins encoding truncated GR fragments were amplified by PCR from full-length human cDNA clones. All constructs were sequenced to confirm the absence of PCR-generated errors. GST-fusion proteins were prepared from bacterial lysates with glutathione sepharose 4B beads as instructed by the manufacturer (Amersham).^25 To construct GST-fusion proteins encoding truncated GR, cDNA fragments were amplified by using PCR with specific primers. 5′ and 3′ oligonucleotides incorporated with specific restriction enzyme sites were used to facilitate sub-cloning into the pGEX-4T3 vector. To confirm appropriate splice fusion and correct nucleotide sequences, all constructs were re-sequenced.

[3] = target: T3, FK506 Binding Protein 51 (FKBP51), endogenous, mouse brain / mouse lymphocyte lysate (mouse, UniProt Q64378 1-456); assay: GST pull-down from mouse brain tissue, Western blot
T3 construct: Endogenous protein in tissue lysate; also called mouse FKBP51
T3 sequence (looked up): T2 sequence (Q64378 1-456)

[4] = target: T4, glucocorticoid receptor (GR), endogenous, mouse brain / mouse lymphocyte lysate (mouse, UniProt P06537 1-792, limits assumed); assay: as above
T4 construct: Endogenous protein in tissue lysate; other cellular proteins are present in the co-IP and pull-down experiments; also called mouse GR
T4 sequence (looked up): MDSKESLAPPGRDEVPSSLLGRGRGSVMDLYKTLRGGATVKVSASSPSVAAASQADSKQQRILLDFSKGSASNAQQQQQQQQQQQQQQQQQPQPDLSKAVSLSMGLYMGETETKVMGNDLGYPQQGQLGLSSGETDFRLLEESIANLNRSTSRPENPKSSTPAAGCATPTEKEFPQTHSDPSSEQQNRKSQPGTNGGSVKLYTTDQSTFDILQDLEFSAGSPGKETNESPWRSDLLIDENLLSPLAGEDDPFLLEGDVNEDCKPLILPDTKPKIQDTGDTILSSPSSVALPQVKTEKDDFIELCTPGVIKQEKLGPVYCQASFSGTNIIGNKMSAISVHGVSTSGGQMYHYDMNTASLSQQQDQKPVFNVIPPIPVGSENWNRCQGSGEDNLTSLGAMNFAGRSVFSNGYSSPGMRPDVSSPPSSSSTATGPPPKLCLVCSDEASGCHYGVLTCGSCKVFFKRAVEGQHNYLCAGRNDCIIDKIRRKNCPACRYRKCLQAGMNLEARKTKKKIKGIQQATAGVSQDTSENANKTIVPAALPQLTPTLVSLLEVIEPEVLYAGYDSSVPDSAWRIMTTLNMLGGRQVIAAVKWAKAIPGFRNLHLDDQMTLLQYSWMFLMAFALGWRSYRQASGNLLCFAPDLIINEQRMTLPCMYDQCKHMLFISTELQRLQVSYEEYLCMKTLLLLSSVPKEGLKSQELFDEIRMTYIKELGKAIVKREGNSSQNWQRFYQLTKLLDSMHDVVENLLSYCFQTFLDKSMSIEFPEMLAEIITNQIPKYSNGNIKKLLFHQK

Molecule | binding result [3] | binding result [4] | other results
WT GR: Flag-tagged wild-type glucocorticoid receptor expressed in HEK293 |  |  | Kd ([1]; figure legend values, read-out: KD for binding FKBP51-TPR (SPR)): 3.31 µM; Kd ([1]; read-out: KD for binding FKBP51 (SPR)): 3.31 ± 0.04 µM
GST-GRNT4-1: GST-fusion protein of GR fragment SPWRSDLLIDENCLL (S211-L225) (also: GST fusion protein) |  |  | pull-down (precipitation) of FKBP51 by GST-GR fragment, Western blot [2]: can “pull-down”
B1 | no binding |  | 
B2 |  | no binding | 
B3 |  | no binding | 
B4 |  | no binding | 
B5 |  | no binding | 
B6 |  | no binding | 
B7 | no binding |  | 
B8 | no binding |  | 
B9 | no binding |  | 
B10 | no binding |  | 
B11 | no binding |  | 
B12 |  |  | pull-down (precipitation) of FKBP51 by GST-GR fragment, Western blot [2]: can “pull-down”; also recorded: precipitated FKBP51
B13 |  |  | pull-down (precipitation) of FKBP51 by GST-GR fragment, Western blot [2]: can “pull-down”; pull-down (precipitation) of FKBP51 by GST-GR fragment, Western blot ([2]; listed as NT-4): best precipitation of FKBP51
